The values below come from WO2019096294A1 (dated 2019).

Assay [1] deals with T1, His-tagged human prothrombin (human, UniProt P00734 44-622, limits assumed).
T1 construct: not shown: His tag
As to the kind of experiment: binding ELISA; His-tagged human prothrombin coated on plate.

Assay [2] has as its target T2, His-tagged human thrombin (human, UniProt P00734 328-622). As to the kind of experiment: binding ELISA; biotinylated His-tagged human thrombin on streptavidin plate.
Assay [3] has as its target T2, His-tagged human thrombin. Put plainly: Biacore SPR; ratio of the affinities for thrombin and prothrombin.

B1: h1601-008 (antibody, V domains shown)
VH: EVQLVESGGGLVQPGGSLRLSCAASGFTFSDYYMAWVRQAPGKGLEWVSNINSDGSSTYYLDSLKSRFTISRDNSKNTLYLQMNSLKAEDTAVYYCARDHYHGNSYVFDYWGQGTTVTVSS
VL: DIQMTQSPSSLSASVGDRVTITCKASEDIYNRLAWYQQKPGKAPRLIISGATSLETGVPSRFSGSGSGKDYTLTISSLQPEDFATYYCQQYWSTPWTFGGGTKVEIK
notes: Humanized parent antibody from WO2017133673A1; Only VH and VL are tied to it; it was detected with an anti-human secondary antibody and captured with an anti-human capture kit
As for B1, the EC50 in assay [1] was 0.151 µg/mL; in assay [2], 0.375 µg/mL. Besides, the “selective activity (affinity for thrombin relative to affinity for prothrombin)” value in assay [3] came to 11.2.
